This series concerns the target T1, Rad52-6His-3Flag (wild type) (Schizosaccharomyces pombe (fission …, UniProt P36592 1-469)).
T1 sequence: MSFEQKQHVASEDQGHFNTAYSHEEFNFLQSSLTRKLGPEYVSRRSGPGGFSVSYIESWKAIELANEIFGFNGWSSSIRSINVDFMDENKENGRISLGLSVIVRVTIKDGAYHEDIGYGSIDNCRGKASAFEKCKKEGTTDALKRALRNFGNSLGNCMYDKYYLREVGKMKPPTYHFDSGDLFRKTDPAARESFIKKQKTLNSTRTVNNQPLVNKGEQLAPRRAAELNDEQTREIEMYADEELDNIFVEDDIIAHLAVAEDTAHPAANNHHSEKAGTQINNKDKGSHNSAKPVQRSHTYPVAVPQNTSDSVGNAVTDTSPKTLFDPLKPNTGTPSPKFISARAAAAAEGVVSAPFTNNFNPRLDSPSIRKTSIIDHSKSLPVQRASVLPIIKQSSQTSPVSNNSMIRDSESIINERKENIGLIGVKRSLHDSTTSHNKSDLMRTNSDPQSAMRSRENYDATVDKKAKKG
Briefly: EMSA; 0-200 nM Rad52, 2 nM DNA; complexes retained in well; EMSA: 32 mM Tris-HCl pH 7.8, 40 mM KCl, 0.8 mM DTT, 0.08 mg/mL BSA, 30 °C, 10 min; 10% native PAGE in 1x TAE. Particulars: protein: recombinant; tags: C-terminal 6His-3Flag; label: 5'-32P; single strand, 48 nt. Background: Mobility shift assays separate free from complexed probe on a gel.

For the molecule GAAGCATTTATCAGGGTTATTGTCTCATGAGCGGATACATATTTGAAT (ssDNA) [Oligo211], the binding result is reported as “binds”.
